# Laboratory results reported in US20140363428A1 (Chugai, published 2014).
# B1: IgG1-F1232 (antibody)
# heavy: QVQLQESGPGLVKPSETLSLTCAVSGHSISHDHAWSWVRQPPGEGLEWIGFISYSGITNYNPSLQGRVTISRDNSKNTLYLQMNSLRAEDTAVYYCARSLARTTAMDYWGEGTLVTVSSASTKGPSVFPLAPSSKSTSGGTAALGCLVKDYFPEPVTVSWNSGALTSGVHTFPAVLQSSGLYSLSSVVTVPSSSLGTQTYICNVNHKPSNTKVDKKVEPKSCDKTHTCPPCPAPELLGGPSVFLFPPKPKDTLYISRTPEVTCVVVDVSHEDPEVKFNWYVDGVEVHNAKTKPREEQYNSTYRVVSVLTVLHQDWLNGKEYKCKVSNKALPAPIEKTISKAKGQPREPQVYTLPPSRDELTKNQVSLTCLVKGFYPSDIAVEWESNGQPENNYKTTPPVLDSDGSFFLYSKLTVDKSRWQQGNVFSCSVMHEALHYHVTKKDLSLSP
# light: not shown
# notes: EU numbering; copies: 2 + 2
# B2: IgG1-F1243 (antibody)
# heavy: QVQLQESGPGLVKPSETLSLTCAVSGHSISHDHAWSWVRQPPGEGLEWIGFISYSGITNYNPSLQGRVTISRDNSKNTLYLQMNSLRAEDTAVYYCARSLARTTAMDYWGEGTLVTVSSASTKGPSVFPLAPSSKSTSGGTAALGCLVKDYFPEPVTVSWNSGALTSGVHTFPAVLQSSGLYSLSSVVTVPSSSLGTQTYICNVNHKPSNTKVDKKVEPKSCDKTHTCPPCPAPELRGGPKVFLFPPKPKDTLYITRTPEVTCVVVDVSHEDPEVKFNWYVDGVEVHNAKTKPREEQYNSTYRVVSVLTVLHQDWLNGKEYKCKVSNKALPAPIEKTISKAKGQPREPQVYTLPPSRDELTKNQVSLTCLVKGFYPSDIAVEWESNGQPENNYKTTPPVLDSDGSFFLYSKLTVDKSRWQQGNVFSCSVMHEALHYHVTRKELSLSP
# light: not shown
# notes: EU numbering; copies: 2 + 2
# B3: IgG1-F1244 (antibody)
# heavy: QVQLQESGPGLVKPSETLSLTCAVSGHSISHDHAWSWVRQPPGEGLEWIGFISYSGITNYNPSLQGRVTISRDNSKNTLYLQMNSLRAEDTAVYYCARSLARTTAMDYWGEGTLVTVSSASTKGPSVFPLAPSSKSTSGGTAALGCLVKDYFPEPVTVSWNSGALTSGVHTFPAVLQSSGLYSLSSVVTVPSSSLGTQTYICNVNHKPSNTKVDKKVEPKSCDKTHTCPPCPAPELRGGPKVFLFPPKPKDTLYISREPEVTCVVVDVSHEDPEVKFNWYVDGVEVHNAKTKPREEQYNSTYRVVSVLTVLHQDWLNGKEYKCKVSNKALPAPIEKTISKAKGQPREPQVYTLPPSRDELTKNQVSLTCLVKGFYPSDIAVEWESNGQPENNYKTTPPVLDSDGSFFLYSKLTVDKSRWQQGNVFSCSVMHEALHYHVTRKELSLSP
# light: not shown
# notes: EU numbering; copies: 2 + 2
# B4: IgG1-F1246 (antibody)
# heavy: QVQLQESGPGLVKPSETLSLTCAVSGHSISHDHAWSWVRQPPGEGLEWIGFISYSGITNYNPSLQGRVTISRDNSKNTLYLQMNSLRAEDTAVYYCARSLARTTAMDYWGEGTLVTVSSASTKGPSVFPLAPSSKSTSGGTAALGCLVKDYFPEPVTVSWNSGALTSGVHTFPAVLQSSGLYSLSSVVTVPSSSLGTQTYICNVNHKPSNTKVDKKVEPKSCDKTHTCPPCPAPELRGGPKVFLFPPKPKDVLYITRTPEVTCVVVDVSHEDPEVKFNWYVDGVEVHNAKTKPREEQYNSTYRVVSVLTVLHQDWLNGKEYKCKVSNKALPAPIEKTISKAKGQPREPQVYTLPPSRDELTKNQVSLTCLVKGFYPSDIAVEWESNGQPENNYKTTPPVLDSDGSFFLYSKLTVDKSRWQQGNVFSCSVMHEALHYHVTRKELSLSP
# light: not shown
# notes: EU numbering; copies: 2 + 2
# B5: IgG1-F1247 (antibody)
# heavy: QVQLQESGPGLVKPSETLSLTCAVSGHSISHDHAWSWVRQPPGEGLEWIGFISYSGITNYNPSLQGRVTISRDNSKNTLYLQMNSLRAEDTAVYYCARSLARTTAMDYWGEGTLVTVSSASTKGPSVFPLAPSSKSTSGGTAALGCLVKDYFPEPVTVSWNSGALTSGVHTFPAVLQSSGLYSLSSVVTVPSSSLGTQTYICNVNHKPSNTKVDKKVEPKSCDKTHTCPPCPAPELRGGPKVFLFPPKPKDVLYISREPEVTCVVVDVSHEDPEVKFNWYVDGVEVHNAKTKPREEQYNSTYRVVSVLTVLHQDWLNGKEYKCKVSNKALPAPIEKTISKAKGQPREPQVYTLPPSRDELTKNQVSLTCLVKGFYPSDIAVEWESNGQPENNYKTTPPVLDSDGSFFLYSKLTVDKSRWQQGNVFSCSVMHEALHYHVTRKELSLSP
# light: not shown
# notes: EU numbering; copies: 2 + 2
# B6: IgG1-F1249 (antibody)
# heavy: QVQLQESGPGLVKPSETLSLTCAVSGHSISHDHAWSWVRQPPGEGLEWIGFISYSGITNYNPSLQGRVTISRDNSKNTLYLQMNSLRAEDTAVYYCARSLARTTAMDYWGEGTLVTVSSASTKGPSVFPLAPSSKSTSGGTAALGCLVKDYFPEPVTVSWNSGALTSGVHTFPAVLQSSGLYSLSSVVTVPSSSLGTQTYICNVNHKPSNTKVDKKVEPKSCDKTHTCPPCPAPELRGGPKVFLFPPKPKDTLYISRQPEVTCVVVDVSHEDPEVKFNWYVDGVEVHNAKTKPREEQYNSTYRVVSVLTVLHQDWLNGKEYKCKVSNKALPAPIEKTISKAKGQPREPQVYTLPPSRDELTKNQVSLTCLVKGFYPSDIAVEWESNGQPENNYKTTPPVLDSDGSFFLYSKLTVDKSRWQQGNVFSCSVMHEALHYHVTRKELSLSP
# light: not shown
# notes: EU numbering; copies: 2 + 2
# B7: IgG1-F1250 (antibody)
# heavy: QVQLQESGPGLVKPSETLSLTCAVSGHSISHDHAWSWVRQPPGEGLEWIGFISYSGITNYNPSLQGRVTISRDNSKNTLYLQMNSLRAEDTAVYYCARSLARTTAMDYWGEGTLVTVSSASTKGPSVFPLAPSSKSTSGGTAALGCLVKDYFPEPVTVSWNSGALTSGVHTFPAVLQSSGLYSLSSVVTVPSSSLGTQTYICNVNHKPSNTKVDKKVEPKSCDKTHTCPPCPAPELRGGPKVFLFPPKPKDTLYITRQPEVTCVVVDVSHEDPEVKFNWYVDGVEVHNAKTKPREEQYNSTYRVVSVLTVLHQDWLNGKEYKCKVSNKALPAPIEKTISKAKGQPREPQVYTLPPSRDELTKNQVSLTCLVKGFYPSDIAVEWESNGQPENNYKTTPPVLDSDGSFFLYSKLTVDKSRWQQGNVFSCSVMHEALHYHVTRKELSLSP
# light: not shown
# notes: EU numbering; copies: 2 + 2
# B8: IgG1-F1251 (antibody)
# heavy: QVQLQESGPGLVKPSETLSLTCAVSGHSISHDHAWSWVRQPPGEGLEWIGFISYSGITNYNPSLQGRVTISRDNSKNTLYLQMNSLRAEDTAVYYCARSLARTTAMDYWGEGTLVTVSSASTKGPSVFPLAPSSKSTSGGTAALGCLVKDYFPEPVTVSWNSGALTSGVHTFPAVLQSSGLYSLSSVVTVPSSSLGTQTYICNVNHKPSNTKVDKKVEPKSCDKTHTCPPCPAPELRGGPKVFLFPPKPKDVLYISRQPEVTCVVVDVSHEDPEVKFNWYVDGVEVHNAKTKPREEQYNSTYRVVSVLTVLHQDWLNGKEYKCKVSNKALPAPIEKTISKAKGQPREPQVYTLPPSRDELTKNQVSLTCLVKGFYPSDIAVEWESNGQPENNYKTTPPVLDSDGSFFLYSKLTVDKSRWQQGNVFSCSVMHEALHYHVTRKELSLSP
# light: not shown
# notes: EU numbering; copies: 2 + 2
# B9: IgG1-F1252 (antibody)
# heavy: QVQLQESGPGLVKPSETLSLTCAVSGHSISHDHAWSWVRQPPGEGLEWIGFISYSGITNYNPSLQGRVTISRDNSKNTLYLQMNSLRAEDTAVYYCARSLARTTAMDYWGEGTLVTVSSASTKGPSVFPLAPSSKSTSGGTAALGCLVKDYFPEPVTVSWNSGALTSGVHTFPAVLQSSGLYSLSSVVTVPSSSLGTQTYICNVNHKPSNTKVDKKVEPKSCDKTHTCPPCPAPELRGGPKVFLFPPKPKDVLYITRQPEVTCVVVDVSHEDPEVKFNWYVDGVEVHNAKTKPREEQYNSTYRVVSVLTVLHQDWLNGKEYKCKVSNKALPAPIEKTISKAKGQPREPQVYTLPPSRDELTKNQVSLTCLVKGFYPSDIAVEWESNGQPENNYKTTPPVLDSDGSFFLYSKLTVDKSRWQQGNVFSCSVMHEALHYHVTRKELSLSP
# light: not shown
# notes: EU numbering; copies: 2 + 2
# B10: IgG1-F1253 (antibody)
# heavy: QVQLQESGPGLVKPSETLSLTCAVSGHSISHDHAWSWVRQPPGEGLEWIGFISYSGITNYNPSLQGRVTISRDNSKNTLYLQMNSLRAEDTAVYYCARSLARTTAMDYWGEGTLVTVSSASTKGPSVFPLAPSSKSTSGGTAALGCLVKDYFPEPVTVSWNSGALTSGVHTFPAVLQSSGLYSLSSVVTVPSSSLGTQTYICNVNHKPSNTKVDKKVEPKSCDKTHTCPPCPAPELRGGPKVFLFPPKPKDTLYISRTPEVTCVVVDVSHEDPEVKFNWYVDGVEVHNAKTKPREEQYNSTYRVVSVLAVLHQDWLNGKEYKCKVSNKALPAPIEKTISKAKGQPREPQVYTLPPSRDELTKNQVSLTCLVKGFYPSDIAVEWESNGQPENNYKTTPPVLDSDGSFFLYSKLTVDKSRWQQGNVFSCSVMHEALHYHVTRKELSLSP
# light: not shown
# notes: EU numbering; copies: 2 + 2
# B11: IgG1-F1254 (antibody)
# heavy: QVQLQESGPGLVKPSETLSLTCAVSGHSISHDHAWSWVRQPPGEGLEWIGFISYSGITNYNPSLQGRVTISRDNSKNTLYLQMNSLRAEDTAVYYCARSLARTTAMDYWGEGTLVTVSSASTKGPSVFPLAPSSKSTSGGTAALGCLVKDYFPEPVTVSWNSGALTSGVHTFPAVLQSSGLYSLSSVVTVPSSSLGTQTYICNVNHKPSNTKVDKKVEPKSCDKTHTCPPCPAPELRGGPKVFLFPPKPKDTLYISRTPEVTCVVVDVSHEDPEVKFNWYVDGVEVHNAKTKPREEQYNSTYRVVSVLQVLHQDWLNGKEYKCKVSNKALPAPIEKTISKAKGQPREPQVYTLPPSRDELTKNQVSLTCLVKGFYPSDIAVEWESNGQPENNYKTTPPVLDSDGSFFLYSKLTVDKSRWQQGNVFSCSVMHEALHYHVTRKELSLSP
# light: not shown
# notes: EU numbering; copies: 2 + 2
# B12: IgG1-F1255 (antibody)
# heavy: QVQLQESGPGLVKPSETLSLTCAVSGHSISHDHAWSWVRQPPGEGLEWIGFISYSGITNYNPSLQGRVTISRDNSKNTLYLQMNSLRAEDTAVYYCARSLARTTAMDYWGEGTLVTVSSASTKGPSVFPLAPSSKSTSGGTAALGCLVKDYFPEPVTVSWNSGALTSGVHTFPAVLQSSGLYSLSSVVTVPSSSLGTQTYICNVNHKPSNTKVDKKVEPKSCDKTHTCPPCPAPELRGGPKVFLFPPKPKDTLYISRTPEVTCVVVDVSHEDPEVKFNWYVDGVEVHNAKTKPREEQYNSTYRVVSVLTVLHADWLNGKEYKCKVSNKALPAPIEKTISKAKGQPREPQVYTLPPSRDELTKNQVSLTCLVKGFYPSDIAVEWESNGQPENNYKTTPPVLDSDGSFFLYSKLTVDKSRWQQGNVFSCSVMHEALHYHVTRKELSLSP
# light: not shown
# notes: EU numbering; copies: 2 + 2
# Target: T1, soluble human FcRn (human, UniProt P55899 24-297; P61769 21-119)
# T1 construct: Heterodimer of FcRn alpha chain and beta2-microglobulin; also called hFcRn
# Assay: SPR (Biacore T100), antibody captured by protein L, hFcRn as analyte, pH 7.0, 25 C;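 further: KD calculated from fitted association and dissociation rate constants of the sensorgrams, protein L amine-coupled to the sensor chip, sodium phosphate running buffer with NaCl and Tween20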
# T1 sequence (P55899 24-297 limits assumed, chain 1 of 2): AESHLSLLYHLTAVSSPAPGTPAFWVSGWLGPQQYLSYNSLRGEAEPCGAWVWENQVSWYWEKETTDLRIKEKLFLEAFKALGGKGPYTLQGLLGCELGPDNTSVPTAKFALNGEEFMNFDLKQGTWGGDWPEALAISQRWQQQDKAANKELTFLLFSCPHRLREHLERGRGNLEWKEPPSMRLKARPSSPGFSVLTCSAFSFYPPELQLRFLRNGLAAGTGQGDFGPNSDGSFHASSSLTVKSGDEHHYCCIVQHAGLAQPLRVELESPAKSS
# T1 sequence (P61769 21-119 limits assumed, chain 2 of 2): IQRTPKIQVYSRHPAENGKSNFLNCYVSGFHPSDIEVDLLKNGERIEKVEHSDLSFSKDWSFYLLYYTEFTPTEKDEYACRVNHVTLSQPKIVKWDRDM
row,Binder,Kd
1,B1,0.098 µM
2,B2,0.13 µM
3,B3,0.1 µM
4,B4,0.17 µM
5,B5,0.15 µM
6,B6,0.21 µM
7,B7,0.17 µM
8,B8,0.28 µM
9,B9,0.23 µM
10,B10,0.11 µM
11,B11,0.064 µM
12,B12,0.11 µM
